The source of these data is patent publication US20060035214, “Screening methods for identifying inhibitors of herpesviral replication” (IRM LLC, a Delaware Limited Liability Company, published 2006).

One data set deals with CDP (CUX1) (UniProt P39880 P39880:1-1505). The experiment in a line: EMSA. As to conditions: tags: pCITE-CDP, TNT reticulocyte lysate; label: radiolabel. Background: In EMSA bound probe runs differently from free probe, usually more slowly.
The target in a further data set is T1, SATB1 (UniProt Q01826 Q01826:1-763).
T1 sequence: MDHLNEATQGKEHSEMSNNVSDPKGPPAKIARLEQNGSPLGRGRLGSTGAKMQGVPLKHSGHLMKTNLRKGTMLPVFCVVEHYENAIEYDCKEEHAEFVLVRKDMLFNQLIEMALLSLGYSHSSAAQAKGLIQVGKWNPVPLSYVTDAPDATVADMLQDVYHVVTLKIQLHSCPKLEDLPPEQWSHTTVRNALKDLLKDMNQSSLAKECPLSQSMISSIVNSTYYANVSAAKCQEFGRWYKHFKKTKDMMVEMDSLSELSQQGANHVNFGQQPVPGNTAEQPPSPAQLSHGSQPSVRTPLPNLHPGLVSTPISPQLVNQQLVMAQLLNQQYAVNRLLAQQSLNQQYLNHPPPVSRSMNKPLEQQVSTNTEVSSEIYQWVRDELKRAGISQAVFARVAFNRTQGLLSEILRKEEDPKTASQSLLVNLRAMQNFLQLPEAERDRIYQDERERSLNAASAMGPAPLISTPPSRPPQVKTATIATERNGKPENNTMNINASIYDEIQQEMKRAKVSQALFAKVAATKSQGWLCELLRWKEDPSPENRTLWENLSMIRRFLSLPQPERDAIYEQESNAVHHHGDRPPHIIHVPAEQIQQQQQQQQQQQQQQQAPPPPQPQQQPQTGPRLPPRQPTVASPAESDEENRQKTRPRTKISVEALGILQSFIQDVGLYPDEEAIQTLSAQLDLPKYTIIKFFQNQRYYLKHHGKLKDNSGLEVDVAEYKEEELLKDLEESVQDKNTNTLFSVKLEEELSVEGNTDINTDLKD
Put plainly: EMSA. The note with it: tags: pCITE-SATB1, TNT reticulocyte lysate; label: radiolabel.

Data set [1] deals with T2, PDX1 (UniProt P52945 P52945:1-283). The experiment in a line: EMSA. The note with it: tags: pCITE-PDX1, TNT reticulocyte lysate; label: radiolabel.
T2 sequence (P52945 whole entry, one chain of several): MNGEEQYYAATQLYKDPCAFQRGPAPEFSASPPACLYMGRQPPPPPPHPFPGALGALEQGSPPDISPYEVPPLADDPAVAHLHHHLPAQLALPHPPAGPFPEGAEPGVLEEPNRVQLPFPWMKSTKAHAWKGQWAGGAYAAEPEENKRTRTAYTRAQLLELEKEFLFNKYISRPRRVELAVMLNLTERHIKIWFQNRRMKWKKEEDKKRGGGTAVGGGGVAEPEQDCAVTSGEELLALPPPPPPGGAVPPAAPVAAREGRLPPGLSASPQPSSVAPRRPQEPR
The target of data set [2] is T2, PDX1. The experiment in a line: EMSA; positive control. As to conditions: tags: pCITE-PDX1, TNT reticulocyte lysate; label: radiolabel.

Chain of CDP (CUX1) (P39880 whole entry, one chain of several): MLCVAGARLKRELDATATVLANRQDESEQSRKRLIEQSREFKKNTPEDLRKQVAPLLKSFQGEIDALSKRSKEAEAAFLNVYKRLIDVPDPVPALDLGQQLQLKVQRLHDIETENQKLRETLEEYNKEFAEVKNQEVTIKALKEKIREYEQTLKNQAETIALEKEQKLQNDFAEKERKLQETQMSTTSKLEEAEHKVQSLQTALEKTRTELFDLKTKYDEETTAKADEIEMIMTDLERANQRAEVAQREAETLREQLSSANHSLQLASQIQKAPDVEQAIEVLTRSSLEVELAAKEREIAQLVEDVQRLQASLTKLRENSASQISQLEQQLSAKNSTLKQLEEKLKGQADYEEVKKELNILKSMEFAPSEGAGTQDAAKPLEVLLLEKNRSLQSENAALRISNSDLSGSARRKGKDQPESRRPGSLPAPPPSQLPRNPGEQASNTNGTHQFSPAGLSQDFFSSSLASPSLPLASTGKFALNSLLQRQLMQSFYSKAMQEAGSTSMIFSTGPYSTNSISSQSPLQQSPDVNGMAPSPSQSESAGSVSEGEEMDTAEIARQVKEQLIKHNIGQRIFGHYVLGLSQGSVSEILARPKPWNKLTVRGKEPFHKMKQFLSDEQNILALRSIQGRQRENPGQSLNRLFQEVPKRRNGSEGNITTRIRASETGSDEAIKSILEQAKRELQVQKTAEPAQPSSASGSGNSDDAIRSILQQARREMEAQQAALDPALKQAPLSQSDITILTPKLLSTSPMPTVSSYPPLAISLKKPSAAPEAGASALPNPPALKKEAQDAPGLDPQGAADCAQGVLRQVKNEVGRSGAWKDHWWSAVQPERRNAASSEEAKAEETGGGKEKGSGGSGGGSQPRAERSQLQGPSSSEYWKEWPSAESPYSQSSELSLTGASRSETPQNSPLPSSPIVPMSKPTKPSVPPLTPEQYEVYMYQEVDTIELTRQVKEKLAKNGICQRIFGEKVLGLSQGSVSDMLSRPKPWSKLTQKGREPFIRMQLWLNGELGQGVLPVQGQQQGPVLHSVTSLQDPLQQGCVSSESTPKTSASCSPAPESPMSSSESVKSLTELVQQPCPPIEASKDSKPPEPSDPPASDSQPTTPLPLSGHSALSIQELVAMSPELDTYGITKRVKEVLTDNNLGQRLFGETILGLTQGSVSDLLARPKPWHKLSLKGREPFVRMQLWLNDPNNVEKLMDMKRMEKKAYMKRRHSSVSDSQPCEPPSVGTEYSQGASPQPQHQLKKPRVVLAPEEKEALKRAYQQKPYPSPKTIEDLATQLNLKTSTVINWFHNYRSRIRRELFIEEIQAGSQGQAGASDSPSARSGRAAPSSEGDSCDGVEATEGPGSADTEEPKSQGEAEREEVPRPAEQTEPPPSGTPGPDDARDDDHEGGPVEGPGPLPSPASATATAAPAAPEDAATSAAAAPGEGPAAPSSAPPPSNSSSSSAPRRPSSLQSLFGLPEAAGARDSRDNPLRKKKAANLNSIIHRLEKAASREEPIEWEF

B1: CMV-687 to -640 (dsDNA)
DNA 1: TAAATCAATATTGGCTATTGGCCATTGCATACGTTGTATCTATATCATAATATGTACA
DNA 2: TGTACATATTATGATATAGATACAACGTATGCAATGGCCAATAGCCAATATTGATTTA
Turning to B1, the binding result with CDP (CUX1) was “binds”.

B2: CMV-639 to -594 (dsDNA)
DNA 1: TATATGTACATTTATATTGGCTCATGTCCAATATGACCGCCATGTTGGCATTGATT
DNA 2: AATCAATGCCAACATGGCGGTCATATTGGACATGAGCCAATATAAATGTACATATA
As to B2, the binding result in the data set with SATB1, with PDX1 [1] and in the data set with CDP (CUX1) was “no binding” each time.

B3: CMV-593 to -549 (dsDNA)
DNA 1: GGCATTGATTATTGACTAGTTATTAATAGTAATCAATTACGGGGTCATTAGTTCA
DNA 2: TGAACTAATGACCCCGTAATTGATTACTATTAATAACTAGTCAATAATCAATGCC
Take B3: the binding result in the data set with CDP (CUX1) and in the data set with PDX1 [2] was “binds” each time.
